From patent publication US20240400715A1 (VIBRANT PHARMA, published 2024)
Substitutions are numbered along the chain they refer to. Where “and” joins values, the source holds several entries; their conditions need not be identical. Identical values can stand only once.

B1: 311 (TA6), configuration of FIG. 1X (bispecific antibody, IgG4)
heavy: EVQLVQSGAEVKKPGASVKVSCKASGYTFTNYYIHWVRQAPGQGLEWIGWIYPGDGNTKYNEKFKGRATLTADTSTSTAYLELSSLRSEDTAVYYCARDSYSNYYFDYWGQGTLVTVSSASTKGPSVFPLAPCSRSTSESTAALGCLVKDYFPEPVTVSWNSGALTSGVHTFPAVLQSSGLYSLSSVVTVPSSSLGTKTYTCNVDHKPSNTKVDKRVESKYGPPCPPCPAPEAAGGPSVFLFPPKPKDTLMISRTPEVTCVVVDVSQEDPEVQFNWYVDGVEVHNAKTKPREEQFNSTYRVVSVLTVLHQDWLNGKEYKCKVSNKGLPSSIEKTISKAKGQPREPQVYTLPPCQEEMTKNQVSLWCLVKGFYPSDIAVEWESNGQPENNYKTTPPVLDSDGSFFLYSRLTVDKSRWQEGNVFSCSVMHEALHNHYTQKSLSLSLGGGGSGGGGSEVQLVESGGGFVQAGESLTLSCTSSTLTFTPYRMAWYRQAPGKQRDLVADISSGDGRTTNYADFAKGRFTISRDNIKNTVFLRMTNLKPEDTAVYYCNTFVSFVGIARSWGQGTQVTVSS
chain: ESKYGPPCPPCPAPEAAGGPSVFLFPPKPKDTLMISRTPEVTCVVVDVSQEDPEVQFNWYVDGVEVHNAKTKPREEQFNSTYRVVSVLTVLHQDWLNGKEYKCKVSNKGLPSSIEKTISKAKGQPREPQVCTLPPSQEEMTKNQVSLSCAVKGFYPSDIAVEWESNGQPENNYKTTPPVLDSDGSFFLVSRLTVDKSRWQEGNVFSCSVMHEALHNRFTQKSLSLSL
light: DIVMTQSPDSLAVSLGERATINCKSSQSLLNSRTRKNYLAWYQQKPGQPPKLLIYWASTRESGVPDRFSGSGSGTDFTLTISSLQAEDVAVYYCTQSFILRTFGQGTKVEIK
notes: chains put together from parts; IgG4, kappa; not shown: kappa light chain constant domain (CL)
B2: CEA-Fab-Knob-+Hole (201) (bispecific antibody, human IgG4 S228P, kappa, F234A L235A)
heavy: EVKLLESGGGLVQPKGSLKLSCAASGFTFNTYAMNWVRQAPGKGLEWVARIRSKYNNYATYYADSVKDRFTISRDDSQSILYLQMNNLKTEDTAMYYCVRHGNFGNSYVSWFAYWGQGTLVTVSSASTKGPSVFPLAPCSRSTSESTAALGCLVKDYFPEPVTVSWNSGALTSGVHTFPAVLQSSGLYSLSSVVTVPSSSLGTKTYTCNVDHKPSNTKVDKRVESKYGPPCPPCPAPEAAGGPSVFLFPPKPKDTLMISRTPEVTCVVVDVSQEDPEVQFNWYVDGVEVHNAKTKPREEQFNSTYRVVSVLTVLHQDWLNGKEYKCKVSNKGLPSSIEKTISKAKGQPREPQVYTLPPCQEEMTKNQVSLWCLVKGFYPSDIAVEWESNGQPENNYKTTPPVLDSDGSFFLYSRLTVDKSRWQEGNVFSCSVMHEALHNHYTQKSLSLSL
chain: B1 chain
light: QAVVTQESALTTSPGETVTLTCRSSTGAVTTSNYANWVQEKPDHLFTGLIGGTNKRAPGVPARFSGSLIGDKAALTITGAQTEDEAIYFCALWYSNLWVFGGGTKVEIKRTVAAPSVFIFPPSDEQLKSGTASVVCLLNNFYPREAKVQWKVDNALQSGNSQESVTEQDSKDSTYSLSSTLTLSKADYEKHKVYACEVTHQGLSSPVTKSFNRGECGGGGSGGGGSEVQLVESGGGFVQAGESLTLSCTSSTLTFTPYRMAWYRQAPGKQRDLVADISSGDGRTTNYADFAKGRFTISRDNIKNTVFLRMTNLKPEDTAVYYCNTFVSFVGIARSWGQGTQVTVSS
notes: VHH linked to the CL of the Fab; human IgG4 knob-into-hole Fc
B3: 312 (TA7), configuration of FIG. 1X (bispecific antibody, IgG4)
heavy: B1 heavy with Y27F, N31S, G54E, D55N, G56D, G66D, A68V, L70I, S100G, N103R
chain: B1 chain
light: B1 light with P49S, A57T, E61K, T95K
notes: as for B1
B4: Fab-Knob-CEA+Hole (102) (bispecific antibody, human IgG4 S228P, kappa, F234A L235A)
heavy: EVKLLESGGGLVQPKGSLKLSCAASGFTFNTYAMNWVRQAPGKGLEWVARIRSKYNNYATYYADSVKDRFTISRDDSQSILYLQMNNLKTEDTAMYYCVRHGNFGNSYVSWFAYWGQGTLVTVSSASTKGPSVFPLAPCSRSTSESTAALGCLVKDYFPEPVTVSWNSGALTSGVHTFPAVLQSSGLYSLSSVVTVPSSSLGTKTYTCNVDHKPSNTKVDKRVESKYGPPCPPCPAPEAAGGPSVFLFPPKPKDTLMISRTPEVTCVVVDVSQEDPEVQFNWYVDGVEVHNAKTKPREEQFNSTYRVVSVLTVLHQDWLNGKEYKCKVSNKGLPSSIEKTISKAKGQPREPQVYTLPPCQEEMTKNQVSLWCLVKGFYPSDIAVEWESNGQPENNYKTTPPVLDSDGSFFLYSRLTVDKSRWQEGNVFSCSVMHEALHNHYTQKSLSLSLGGGGSGGGGSEVQLVESGGGFVQAGESLTLSCTSSTLTFTPYRMAWYRQAPGKQRDLVADISSGDGRTTNYADFAKGRFTISRDNIKNTVFLRMTNLKPEDTAVYYCNTFVSFVGIARSWGQGTQVTVSS
chain: B1 chain
light: QAVVTQESALTTSPGETVTLTCRSSTGAVTTSNYANWVQEKPDHLFTGLIGGTNKRAPGVPARFSGSLIGDKAALTITGAQTEDEAIYFCALWYSNLWVFGGGTKVEIKRTVAAPSVFIFPPSDEQLKSGTASVVCLLNNFYPREAKVQWKVDNALQSGNSQESVTEQDSKDSTYSLSSTLTLSKADYEKHKVYACEVTHQGLSSPVTKSFNRGEC
notes: Anti-CD3 TA1 Fab + anti-CEA VHH C17 on human IgG4 knob-into-hole Fc
B5: Knob-CEA+Hole-Fab (112) (bispecific antibody, human IgG4 S228P, kappa, F234A L235A)
chain: ESKYGPPCPPCPAPEAAGGPSVFLFPPKPKDTLMISRTPEVTCVVVDVSQEDPEVQFNWYVDGVEVHNAKTKPREEQFNSTYRVVSVLTVLHQDWLNGKEYKCKVSNKGLPSSIEKTISKAKGQPREPQVYTLPPCQEEMTKNQVSLWCLVKGFYPSDIAVEWESNGQPENNYKTTPPVLDSDGSFFLYSRLTVDKSRWQEGNVFSCSVMHEALHNHYTQKSLSLSLGGGGSGGGGSEVQLVESGGGFVQAGESLTLSCTSSTLTFTPYRMAWYRQAPGKQRDLVADISSGDGRTTNYADFAKGRFTISRDNIKNTVFLRMTNLKPEDTAVYYCNTFVSFVGIARSWGQGTQVTVSS
heavy: ESKYGPPCPPCPAPEAAGGPSVFLFPPKPKDTLMISRTPEVTCVVVDVSQEDPEVQFNWYVDGVEVHNAKTKPREEQFNSTYRVVSVLTVLHQDWLNGKEYKCKVSNKGLPSSIEKTISKAKGQPREPQVCTLPPSQEEMTKNQVSLSCAVKGFYPSDIAVEWESNGQPENNYKTTPPVLDSDGSFFLVSRLTVDKSRWQEGNVFSCSVMHEALHNRFTQKSLSLSLGGGGSGGGGSEVKLLESGGGLVQPKGSLKLSCAASGFTFNTYAMNWVRQAPGKGLEWVARIRSKYNNYATYYADSVKDRFTISRDDSQSILYLQMNNLKTEDTAMYYCVRHGNFGNSYVSWFAYWGQGTLVTVSSASTKGPSVFPLAPCSRSTSESTAALGCLVKDYFPEPVTVSWNSGALTSGVHTFPAVLQSSGLYSLSSVVTVPSSSLGTKTYTCNVDHKPSNTKVDKRV
light: B4 light
notes: as for B4
B6: Fab-Knob+CEA-Hole (101) (bispecific antibody, human IgG4 S228P, kappa, F234A L235A)
heavy: B2 heavy
chain: EVQLVESGGGFVQAGESLTLSCTSSTLTFTPYRMAWYRQAPGKQRDLVADISSGDGRTTNYADFAKGRFTISRDNIKNTVFLRMTNLKPEDTAVYYCNTFVSFVGIARSWGQGTQVTVSSESKYGPPCPPCPAPEAAGGPSVFLFPPKPKDTLMISRTPEVTCVVVDVSQEDPEVQFNWYVDGVEVHNAKTKPREEQFNSTYRVVSVLTVLHQDWLNGKEYKCKVSNKGLPSSIEKTISKAKGQPREPQVCTLPPSQEEMTKNQVSLSCAVKGFYPSDIAVEWESNGQPENNYKTTPPVLDSDGSFFLVSRLTVDKSRWQEGNVFSCSVMHEALHNRFTQKSLSLSL
light: B4 light
notes: Anti-CD3 TA1 Fab + anti-CEA VHH C17 on human IgG4 knob-into-hole Fc, kappa light chain

target: T1, human CD3 on Jurkat cells (human, UniProt P07766 23-207; P04234 22-171; P09693 23-182); test: FACS, Jurkat cells;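 also: flow cytometric binding of bispecific antibodies to Jurkat T cells, threefold serial dilutions incubated half an hour in the cold, EC50 taken from the fitted binding curve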
T1 construct: whole, on cells; CD3 complex as on Jurkat (Clone E6-1) cells; also called CD3 expressing cells (Jurkat)
Method: The binding of the bispecific antibodies was tested on the CA expressing human lung adenocarcinoma cell line (H1573) and the CD3 expressing immortalized T lymphocyte line (Jurkat). The steps are as follows: the cells were harvested, counted, and resuspended in FACS buffer (PBS containing 0.1% BSA) at 2×10⁶ cells/ml. 100 μl of cell suspension was incubated in a V-bottom 96-well plate at 4° C. with 3-fold serial dilutions of bispecific antibodies (20 μg/ml-0.009 μg/ml) for 30 minutes; washed twice with pre-cooled FACS buffer. […] GraphPadPrism was used to obtain the binding curve.

EC50 | Binder
1.04 µg/mL and 8.02 nM | B1
0.312 µg/mL and 2.4 nM | B2
0.146 µg/mL and 1.12 nM | B3
0.592 µg/mL and 4.55 nM | B4
5.32 µg/mL and 40.9 nM | B5
6.28 µg/mL and 48.3 nM | B6

target: T2, human CD3ε/δ (ACRO systems, CDD-H52W1) (human, UniProt P07766 23-126; P04234 22-105); test: BLI, antibody captured, antigen in solution;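 also: bispecific antibodies captured on AHIC biosensors to a 1.5 nm loading signal, in PBST with 0.02% detergent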
T2 construct: Bought protein; also called human CD3ϵ/CD3δ; human CD3 epsilon/delta antigen
Method: The bispecific antibodies were diluted to 5 ag/ml, and 1.5 nm protein was coupled to the surface of the AHIC sensor chip through 0.02% PBST.

Kd [nM] | koff [s⁻¹] | kon [M⁻¹ s⁻¹] | Binder
3.66 | 0.00101 | 303000 | B1
2.59 | 0.00046 | 178000 | B2
3.24 | 0.000565 | 157000 | B3
0.984 | 0.000327 | 333000 | B4
2.44 | 0.000614 | 252000 | B5
0.979 | 0.0004 | 409000 | B6
